Source: patent US20210024596A1

Legend:
histone H3 (human) = histone H3 (human) (UniProt P68431); assay: SPR kinetic assay, ligand H3 captured on the chip, analyte prothrombin fragment 1 at 1.0-6.0 µM
histone H4 (human) = histone H4 (human) (UniProt P62805); assay: SPR kinetic assay, ligand H4 captured on the chip, analyte prothrombin fragment 1 at 1.0-6.0 µM

Substance: recombinant human prothrombin fragment 1 (from UniProt P00734 44-198)
- Kd (histone H3 (human)): 2350 nM
- Kd (histone H4 (human)): 896 nM
